Reference: FireProtDB (doi:10.1016/j.bbapap.2014.10.010)

Settings: Homo sapiens; pH 7.4; Thermal; DSC; Hepes 20 mM; NaCl 200 mM; transition: 2; reversible: No; whole UniProt chain shown

B1: Alanine--glyoxylate aminotransferase wild type, P21549 (protein)
chain: MASHKLLVTPPKALLKPLSIPNQLLLGPGPSNLPPRIMAAGGLQMIGSMSKDMYQIMDEIKEGIQYVFQTRNPLTLVISGSGHCALEAALVNVLEPGDSFLVGANGIWGQRAVDIGERIGARVHPMTKDPGGHYTLQEVEEGLAQHKPVLLFLTHGESSTGVLQPLDGFGELCHRYKCLLLVDSVASLGGTPLYMDRQGIDILYSGSQKALNAPPGTSLISFSDKAKKKMYSRKTKPFSFYLDIKWLANFWGCDDQPRMYHHTIPVISLYSLRESLALIAEQGLENSWRQHREAAAYLHGRLQALGLQLFVKDPALRLPTVTTVAVPAGYDWRDIVSYVIDHFDIEIMGGLGPSTGKVLRIGLLGCNATRENVDRVTEALRAALQHCPKKKL
In the case of B1, the Tm is reported as 82.1 °C and the “unfolding enthalpy (calorimetric)” value is reported as 547 kcal/mol.
